Source: PMC11773478

B1: EPHA1: N414A (protein)
parent chain: MERRWPLGLGLVLLLCAPLPPGARAKEVTLMDTSKAQGELGWLLDPPKDGWSEQQQILNGTPLYMYQDCPMQGRRDTDHWLRSNWIYRGEEASRVHVELQFTVRDCKSFPGGAGPLGCKETFNLLYMESDQDVGIQLRRPLFQKVTTVAADQSFTIRDLVSGSVKLNVERCSLGRLTRRGLYLAFHNPGACVALVSVRVFYQRCPETLNGLAQFPDTLPGPAGLVEVAGTCLPHARASPRPSGAPRMHCSPDGEWLVPVGRCHCEPGYEEGGSGEACVACPSGSYRMDMDTPHCLTCPQQSTAESEGATICTCESGHYRAPGEGPQVACTGPPSAPRNLSFSASGTQLSLRWEPPADTGGRQDVRYSVRCSQCQGTAQDGGPCQPCGVGVHFSPGARGLTTPAVHVNGLEPYANYTFNVEAQNGVSGLGSSGHASTSVSISMGHAESLSGLSLRLVKKEPRQLELTWAGSRPRSPGANLTYELHVLNQDEERYQMVLEPRVLLTELQPDTTYIVRVRMLTPLGPGPFSPDHEFRTSPPVSRGLTGGEIVAVIFGLLLGAALLLGILVFRSRRAQRQRQQRQRDRATDVDREDKLWLKPYVDLQAYEDPAQGALDFTRELDPAWLMVDTVIGEGEFGEVYRGTLRLPSQDCKTVAIKTLKDTSPGGQWWNFLREATIMGQFSHPHILHLEGVVTKRKPIMIITEFMENGALDAFLREREDQLVPGQLVAMLQGIASGMNYLSNHNYVHRDLAARNILVNQNLCCKVSDFGLTRLLDDFDGTYETQGGKIPIRWTAPEAIAHRIFTTASDVWSFGIVMWEVLSFGDKPYGEMSNQEVMKSIEDGYRLPPPVDCPAPLYELMKNCWAYDRARRPHFQKLQAHLEQLLANPHSLRTIANFDPRMTLRLPSLSGSDGIPYRTVSEWLESIRMKRYILHFHSAGLDTMECVLELTAEDLTQMGITLPGHQKRILCSIQGFKD
B2: EPHA1: N478A (protein)
parent chain: B1 parent chain
B3: EPHA1: N414A-N478A (protein)
parent chain: B1 parent chain

Test: cell surface biotinylation, streptavidin pull-down, EPHA1 immunoblot
Conditions: glycan lost; control: wild type

localisation_or_trafficking, decreases:
B1
B2
B3
